System: His/Xpress-Gemin5 (pcDNA3Xpress-Gemin5)
Test: pull-down (UV-irradiated HEK293 cells, Ni-NTA, RT-qPCR)
Details: EMSA: RNA folded in 100 mM HEPES pH 8.0, 100 mM NaCl, 5.25 mM MgCl2, 37 C; binding in 40 mM Tris-HCl pH 7.5, 250 mM NaCl, 0.1% (w/v) bME, 15 min, room …

## L32-WT-luc mRNA (5'TOP)
  binding signal (fold vs L32-CM6): 5
